The record followed here is the supplement of paper PMC7125110.

B1: glmS ribozyme (parent)
chain: AUAAAAGCGCCAGAACUACAGAAAUGUAGUUGACGAGGAGGAGGUUUAUCGAAUUUUCGGCGGAUGCCUCCAAA

Common to all, as to conditions: with glucosamine-6-phosphate
The variants in data set [1] derive from B1. The data set can be described thus: kcat; higher = faster cleavage; RNA array. In outline: (§1)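 The measurements used barcoded ribozyme variants on sequenced MiSeq chips, transcribed in situ by E. coli RNA polymerase and tracked at 37 °C with a hybridised Cy3 probe. Glucosamine-6-phosphate, 40 μM to 10 mM in HEPES/KCl/Mg(OAc)2 buffer, was flowed in while tiles were imaged over ~14 h. Baseline-normalised signals, also normalised to non-cleaving reference variants, gave per-tile medians that were fit to one- or two-exponential decays for kobs. kcat and KM resulted from weighted Michaelis–Menten fits across concentrations.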

The variants in data set [2] derive from B1. The data set can be described thus: KM; higher = weaker cofactor use; RNA array. The gist of the method: as §1
Data set [3] covers variants of B1. The data set can be described thus: self-cleavage kobs at 40 uM GlcN6P; higher = faster cleavage; RNA array. In outline: as §1
Variants of B1 are the subject of data set [4]. The data set can be described thus: self-cleavage kobs at 160 uM GlcN6P; higher = faster cleavage; RNA array. In outline: as §1
In data set [5] the parent is B1. The data set can be described thus: self-cleavage kobs at 640 uM GlcN6P; higher = faster cleavage; RNA array. The gist of the method: as §1
Data set [6] covers variants of B1. The data set can be described thus: self-cleavage kobs at 2500 uM GlcN6P; higher = faster cleavage; RNA array. The gist of the method:
as §1

In data set [7] the parent is B1. The data set can be described thus: self-cleavage kobs at 10000 uM GlcN6P; higher = faster cleavage; RNA array. The gist of the method:
as §1

± gives the standard error. For some assays here: Variants at the floor of the assay were thinned out.

A word on the kcat: it is the number of substrate molecules converted per active site and unit of time at saturation. As a reminder, the KM is the concentration of substrate that gives half-maximal velocity. A12C A53C: the catalytic constant (kcat) with glucosamine-6-phosphate [1] was found to be 0.00399 ± 0.0011 s⁻¹. In the data set with glucosamine-6-phosphate [2], the KM stood at 2090 ± 920 µM. Further, in the data set with glucosamine-6-phosphate [3], the “self-cleavage kobs at 40 uM GlcN6P” value is 0.000109 ± 1.4e-05 s⁻¹. Also, the “self-cleavage kobs at 160 uM GlcN6P” value with glucosamine-6-phosphate [4] is 0.000285 ± 8.1e-05 s⁻¹. Besides, the “self-cleavage kobs at 640 uM GlcN6P” value with glucosamine-6-phosphate [5] turned out to be 0.000662 ± 0.00012 s⁻¹. For the same variant, in the data set with glucosamine-6-phosphate [6], the “self-cleavage kobs at 2500 uM GlcN6P” value is 0.00223 ± 0.00038 s⁻¹. The “self-cleavage kobs at 10000 uM GlcN6P” value in the data set with glucosamine-6-phosphate [7] worked out at 0.00352 ± 0.00041 s⁻¹.
G38A U55C: in the data set with glucosamine-6-phosphate [1], the turnover number (kcat) is < 1e-05 s⁻¹. Also, the Michaelis-Menten constant (KM) in the data set with glucosamine-6-phosphate [2] worked out at 37.7 ± 15 µM.
Consider A15U C50U, for which the catalytic constant (kcat) with glucosamine-6-phosphate [1] was 2.32e-05 ± 2.6e-06 s⁻¹.
As to C67A C68A, in the data set with glucosamine-6-phosphate [1], the kcat came out at 3.56e-05 ± 6.8e-06 s⁻¹. Besides, in the data set with glucosamine-6-phosphate [5], the “self-cleavage kobs at 640 uM GlcN6P” value turned out to be 5.08e-05 ± 1.2e-05 s⁻¹. Also, the “self-cleavage kobs at 2500 uM GlcN6P” value in the data set with glucosamine-6-phosphate [6] was 2.46e-05 ± 1e-05 s⁻¹. The “self-cleavage kobs at 10000 uM GlcN6P” value with glucosamine-6-phosphate [7] worked out at 3.61e-05 ± 9.6e-06 s⁻¹.
A15U C50G A53U U55A: in the data set with glucosamine-6-phosphate [1], the kcat is 3.35e-05 ± 1.6e-05 s⁻¹. In addition, in the data set with glucosamine-6-phosphate [6], the “self-cleavage kobs at 2500 uM GlcN6P” value is 4.02e-05 ± 1.8e-05 s⁻¹.
As to U46G G66A, the catalytic constant (kcat) with glucosamine-6-phosphate [1] is 0.00746 ± 0.0016 s⁻¹. For the same variant, the Michaelis-Menten constant (KM) with glucosamine-6-phosphate [2] turned out to be 2580 ± 720 µM. In addition, the “self-cleavage kobs at 40 uM GlcN6P” value with glucosamine-6-phosphate [3] is 0.000106 ± 1.6e-05 s⁻¹. In addition, the “self-cleavage kobs at 640 uM GlcN6P” value with glucosamine-6-phosphate [5] is 0.00155 ± 0.00019 s⁻¹. Besides, in the data set with glucosamine-6-phosphate [6], the “self-cleavage kobs at 2500 uM GlcN6P” value came to 0.00502 ± 0.0011 s⁻¹. Moreover, in the data set with glucosamine-6-phosphate [7], the “self-cleavage kobs at 10000 uM GlcN6P” value is 0.00541 ± 0.001 s⁻¹.
Consider U31C U46A, for which the kcat in the data set with glucosamine-6-phosphate [1] worked out at 0.000286 ± 7.3e-06 s⁻¹. Further, in the data set with glucosamine-6-phosphate [2], the Michaelis-Menten constant (KM) turned out to be 2230 ± 110 µM. Besides, the “self-cleavage kobs at 640 uM GlcN6P” value in the data set with glucosamine-6-phosphate [5] was found to be 6.31e-05 ± 9.4e-06 s⁻¹. In addition, the “self-cleavage kobs at 2500 uM GlcN6P” value with glucosamine-6-phosphate [6] turned out to be 0.000152 ± 2.9e-05 s⁻¹. Further, the “self-cleavage kobs at 10000 uM GlcN6P” value with glucosamine-6-phosphate [7] was determined as 0.000234 ± 3.3e-05 s⁻¹.
As to C16G A52G, in the data set with glucosamine-6-phosphate [1], the kcat was 0.000339 ± 0.0001 s⁻¹. Besides, in the data set with glucosamine-6-phosphate [5], the “self-cleavage kobs at 640 uM GlcN6P” value came to 7.43e-05 ± 2.3e-05 s⁻¹. Besides, in the data set with glucosamine-6-phosphate [6], the “self-cleavage kobs at 2500 uM GlcN6P” value came to 0.000119 ± 1.9e-05 s⁻¹. Moreover, in the data set with glucosamine-6-phosphate [7], the “self-cleavage kobs at 10000 uM GlcN6P” value is 0.000262 ± 4.1e-05 s⁻¹.
In the case of C10A A14C C71A, the kcat with glucosamine-6-phosphate [1] was found to be 2.17e-05 ± 9.3e-06 s⁻¹.
Regarding U55G A64C, the turnover number (kcat) with glucosamine-6-phosphate [1] was found to be 0.000152 ± 1.4e-05 s⁻¹. For the same variant, the KM with glucosamine-6-phosphate [2] was 1210 ± 350 µM. Besides, the “self-cleavage kobs at 640 uM GlcN6P” value with glucosamine-6-phosphate [5] was determined as 5.93e-05 ± 1.7e-05 s⁻¹. Besides, the “self-cleavage kobs at 2500 uM GlcN6P” value with glucosamine-6-phosphate [6] amounted to 9.39e-05 ± 1.5e-05 s⁻¹. The “self-cleavage kobs at 10000 uM GlcN6P” value in the data set with glucosamine-6-phosphate [7] was 0.000143 ± 2e-05 s⁻¹.
On to U56C C71A, for which, in the data set with glucosamine-6-phosphate [1], the kcat stood at 4.36e-05 ± 8.2e-06 s⁻¹. The “self-cleavage kobs at 2500 uM GlcN6P” value with glucosamine-6-phosphate [6] amounted to 5.14e-05 ± 1.2e-05 s⁻¹. For the same variant, in the data set with glucosamine-6-phosphate [7], the “self-cleavage kobs at 10000 uM GlcN6P” value is 3.76e-05 ± 9e-06 s⁻¹.
In the case of A52G C70A, in the data set with glucosamine-6-phosphate [1], the turnover number (kcat) was determined as 6.21e-05 ± 4e-06 s⁻¹. The “self-cleavage kobs at 40 uM GlcN6P” value with glucosamine-6-phosphate [3] stood at 2.42e-05 ± 1.2e-05 s⁻¹. Further, in the data set with glucosamine-6-phosphate [4], the “self-cleavage kobs at 160 uM GlcN6P” value came out at 4.3e-05 ± 1.3e-05 s⁻¹. Further, the “self-cleavage kobs at 640 uM GlcN6P” value in the data set with glucosamine-6-phosphate [5] turned out to be 5.8e-05 ± 6.8e-06 s⁻¹. Moreover, the “self-cleavage kobs at 2500 uM GlcN6P” value with glucosamine-6-phosphate [6] was 6.59e-05 ± 6.1e-06 s⁻¹. In the data set with glucosamine-6-phosphate [7], the “self-cleavage kobs at 10000 uM GlcN6P” value amounted to 5.24e-05 ± 7.9e-06 s⁻¹.
With U30C U56G, in the data set with glucosamine-6-phosphate [1], the kcat worked out at 0.000308 ± 7.9e-05 s⁻¹. Also, in the data set with glucosamine-6-phosphate [5], the “self-cleavage kobs at 640 uM GlcN6P” value came to 8.86e-05 ± 1.3e-05 s⁻¹. Moreover, the “self-cleavage kobs at 2500 uM GlcN6P” value with glucosamine-6-phosphate [6] is 0.000135 ± 1.8e-05 s⁻¹. Besides, in the data set with glucosamine-6-phosphate [7], the “self-cleavage kobs at 10000 uM GlcN6P” value amounted to 0.000296 ± 3.5e-05 s⁻¹.
Take G13A A52G: the kcat with glucosamine-6-phosphate [1] is 6.74e-05 ± 2.2e-06 s⁻¹. For the same variant, the Michaelis constant (KM) with glucosamine-6-phosphate [2] stood at 1040 ± 140 µM. In addition, the “self-cleavage kobs at 2500 uM GlcN6P” value in the data set with glucosamine-6-phosphate [6] came to 4.85e-05 ± 1.2e-05 s⁻¹. In addition, the “self-cleavage kobs at 10000 uM GlcN6P” value in the data set with glucosamine-6-phosphate [7] was 6.07e-05 ± 1.1e-05 s⁻¹.
A14G C58G: the turnover number (kcat) in the data set with glucosamine-6-phosphate [1] came to 0.00036 ± 0.00013 s⁻¹. The “self-cleavage kobs at 160 uM GlcN6P” value with glucosamine-6-phosphate [4] was found to be 4.95e-05 ± 1.8e-05 s⁻¹. For the same variant, the “self-cleavage kobs at 640 uM GlcN6P” value with glucosamine-6-phosphate [5] came out at 7.22e-05 ± 2.1e-05 s⁻¹. Moreover, the “self-cleavage kobs at 2500 uM GlcN6P” value in the data set with glucosamine-6-phosphate [6] is 0.000115 ± 2.3e-05 s⁻¹. In addition, in the data set with glucosamine-6-phosphate [7], the “self-cleavage kobs at 10000 uM GlcN6P” value was 0.000276 ± 3.5e-05 s⁻¹.
In the case of A12C G62U C70G, in the data set with glucosamine-6-phosphate [1], the catalytic constant (kcat) came out at 2.02e-05 ± 4.5e-06 s⁻¹.
Turning to U31A C58A, in the data set with glucosamine-6-phosphate [1], the kcat came to 0.00103 ± 0.00024 s⁻¹. For the same variant, the “self-cleavage kobs at 10000 uM GlcN6P” value with glucosamine-6-phosphate [7] turned out to be 0.000242 ± 3.7e-05 s⁻¹.
The corresponding values for G43A U55A are 0.00026 ± 7.6e-05 s⁻¹ and 8.23e-05 ± 1.2e-05 s⁻¹.
In the case of A48G C71A, the catalytic constant (kcat) with glucosamine-6-phosphate [1] is 2.26e-05 ± 4.7e-06 s⁻¹. The “self-cleavage kobs at 2500 uM GlcN6P” value with glucosamine-6-phosphate [6] turned out to be 2.93e-05 ± 1.3e-05 s⁻¹.
With G60U C67A, in the data set with glucosamine-6-phosphate [1], the kcat is < 1e-05 s⁻¹. For the same variant, in the data set with glucosamine-6-phosphate [3], the “self-cleavage kobs at 40 uM GlcN6P” value was < 1e-05 s⁻¹. Besides, in the data set with glucosamine-6-phosphate [4], the “self-cleavage kobs at 160 uM GlcN6P” value was < 1e-05 s⁻¹. Moreover, the “self-cleavage kobs at 2500 uM GlcN6P” value with glucosamine-6-phosphate [6] was < 1e-05 s⁻¹.
On to A48G C68U, for which the turnover number (kcat) in the data set with glucosamine-6-phosphate [1] was found to be 0.000161 ± 4.8e-05 s⁻¹. For the same variant, in the data set with glucosamine-6-phosphate [4], the “self-cleavage kobs at 160 uM GlcN6P” value was < 1e-05 s⁻¹. In addition, the “self-cleavage kobs at 10000 uM GlcN6P” value with glucosamine-6-phosphate [7] stood at 4.18e-05 ± 8.3e-06 s⁻¹.
Consider G37C C70G, for which the kcat with glucosamine-6-phosphate [1] turned out to be 1.47e-05 ± 4.3e-06 s⁻¹.
